Results on 38 molecules are retold here after article PMC314469, “Protein Interaction Networks by Proteome Peptide Scanning” (PLoS Biology, 2004).

In assay [1] the target is T1, amphyphisin SH3 (AMPH_HUMAN), P49418.
T1 chain: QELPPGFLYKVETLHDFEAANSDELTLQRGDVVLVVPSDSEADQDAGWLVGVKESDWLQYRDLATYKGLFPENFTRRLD
The assay is described as follows: SPOT array.

Assay [2] addresses endophilin SH3 (SH3G2_HUMAN), Q99962. The assay is described as follows: SPOT array.

Regarding SEMLIKRPSKVKTI [Q8WV92 138-151], the normalised SPOT signal, Boehringer light units (BLU); mean over the file's lines of this peptide in assay [1] is 62.6; in assay [2], 48.1.

As for TPKPPKRPRLQRPA [Q9NWH1 363-376], the normalised SPOT signal, Boehringer light units (BLU); mean over the file's lines of this peptide is 381 in assay [1] and 8220 in assay [2].

For TREALSRPARTAPL [Q13424 330-343], the normalised SPOT signal, Boehringer light units (BLU); mean over the file's lines of this peptide was determined as 440 in assay [1] and 216 in assay [2].

For the molecule TRESIVRPSRRGGI [Q14333 228-241], the normalised SPOT signal, Boehringer light units (BLU); mean over the file's lines of this peptide in assay [1] came out at 1320; in assay [2] it was 89.5.

TRDDPYRPAKPVPT [O14730 137-150]: the normalised SPOT signal, Boehringer light units (BLU); mean over the file's lines of this peptide worked out at 4.8 in assay [1] and 68.1 in assay [2].

As for TPVSLGRPERYRRH [Q9GZM7 384-397], the normalised SPOT signal, Boehringer light units (BLU); mean over the file's lines of this peptide in assay [1] is 644; in assay [2], 398.

TPPLPRRPRKGSSE [Q9H0X6 10-23]: the values for the normalised SPOT signal, Boehringer light units (BLU); mean over the file's lines of this peptide in assay [1] and in assay [2] were 2900 and 2360, respectively.

For TPTVPLKPPPPLTL [Q9HD71 354-368], the normalised SPOT signal, Boehringer light units (BLU); mean over the file's lines of this peptide in assay [1] stood at 39.3; in assay [2], 904.

Turning to TRKELERPIKVPVV [P82251 399-412], the normalised SPOT signal, Boehringer light units (BLU); mean over the file's lines of this peptide in assay [1] worked out at 0; in assay [2], 324.

Turning to TPRPLARPARPNLS [Q9Y6C2 143-156], the normalised SPOT signal, Boehringer light units (BLU); mean over the file's lines of this peptide in assay [1] was 3020; in assay [2], 610.

For TPASPRRPPALRSQ [Q9BUY9 390-404], the normalised SPOT signal, Boehringer light units (BLU); mean over the file's lines of this peptide came to 843 in assay [1] and 6640 in assay [2].

Take TQSLPTRPPTFPPT [Q05707 817-831]: the normalised SPOT signal, Boehringer light units (BLU); mean over the file's lines of this peptide amounted to 78.8 in assay [1] and 1190 in assay [2].

In the case of TPAPPLRPPDSPSR [O75949 160-174], the normalised SPOT signal, Boehringer light units (BLU); mean over the file's lines of this peptide in assay [1] was found to be 280; in assay [2] it was 2060.

With SEVPLKRPRLDKNS [Q9BZW3 294-307], the normalised SPOT signal, Boehringer light units (BLU); mean over the file's lines of this peptide in assay [1] was 45.5; in assay [2], 65.5.

As to TRPPPIRPPFSHPI [P10323 306-320], the normalised SPOT signal, Boehringer light units (BLU); mean over the file's lines of this peptide was determined as 804 in assay [1] and 10400 in assay [2].

For TRRVLLRPEKRPPV [P34969 436-449], the normalised SPOT signal, Boehringer light units (BLU); mean over the file's lines of this peptide was determined as 177 in assay [1] and 123 in assay [2].

As for TPGEFRRPRLASFG [Q14678 130-143], the normalised SPOT signal, Boehringer light units (BLU); mean over the file's lines of this peptide is 44.3 in assay [1] and 720 in assay [2].

With TPPQPKRPRPGVSK [Q9BR39 363-376], the normalised SPOT signal, Boehringer light units (BLU); mean over the file's lines of this peptide in assay [1] was 343; in assay [2], 253.

As for TPPDPPRPKRRSHS [Q9ULT1 709-722], the normalised SPOT signal, Boehringer light units (BLU); mean over the file's lines of this peptide in assay [1] stood at 2330; in assay [2] it was 202.

Consider TPNPLERPIKMGWL [P42331 33-46], for which the normalised SPOT signal, Boehringer light units (BLU); mean over the file's lines of this peptide worked out at 94 in assay [1] and 59.1 in assay [2].

Consider TPRKILRPTKETSE [Q9BXX2 182-195], for which the normalised SPOT signal, Boehringer light units (BLU); mean over the file's lines of this peptide is 173 in assay [1] and 30.9 in assay [2].

For the molecule SELRLSRPPKAYGS [Q9H4S4 61-74], the normalised SPOT signal, Boehringer light units (BLU); mean over the file's lines of this peptide came to 36.1 in assay [1] and 13.3 in assay [2].

Turning to TPRGPRRPSGPAEL [Q9BUY9 649-662], the normalised SPOT signal, Boehringer light units (BLU); mean over the file's lines of this peptide in assay [1] was found to be 31.6; in assay [2], 30.

Consider TPPIPSKPPGGFGK [Q9H462 843-857], for which the normalised SPOT signal, Boehringer light units (BLU); mean over the file's lines of this peptide in assay [1] was determined as 41.7; in assay [2] it was 995.

With TRKGPKRPQQPNPP [Q16632 107-120], the normalised SPOT signal, Boehringer light units (BLU); mean over the file's lines of this peptide is 46.7 in assay [1] and 2280 in assay [2].

Consider TNSRLARPTRLSLG [P35568 851-864], for which the results for the normalised SPOT signal, Boehringer light units (BLU); mean over the file's lines of this peptide in assay [1] and in assay [2] were 1760 and 1890, respectively.

On to TPSELERPSRMVSR [Q14068 72-85], for which the normalised SPOT signal, Boehringer light units (BLU); mean over the file's lines of this peptide was determined as 772 in assay [1] and 29 in assay [2].

For the molecule TRGRPTRPPTRPPT [Q96F98 1-15], the results for the normalised SPOT signal, Boehringer light units (BLU); mean over the file's lines of this peptide in assay [1] and in assay [2] were 913 and 8360, respectively.

Take TPLSPLKPPRMDTA [Q9H898 117-131]: the normalised SPOT signal, Boehringer light units (BLU); mean over the file's lines of this peptide in assay [1] was 334; in assay [2] it was 56.4.

With TQISLKRPRHRSVG [Q9P2Z0 180-193], the values for the normalised SPOT signal, Boehringer light units (BLU); mean over the file's lines of this peptide in assay [1] and in assay [2] were 6.5 and 27.6, respectively.

TPPAFIRPTRKLDD [Q9UPV7 127-140]: the normalised SPOT signal, Boehringer light units (BLU); mean over the file's lines of this peptide in assay [1] came out at 173; in assay [2], 146.

TRPPPIRPPFSHPL [P58840 117-131]: the normalised SPOT signal, Boehringer light units (BLU); mean over the file's lines of this peptide was found to be 567 in assay [1] and 8780 in assay [2].

SFHSPRRPYASPLL [P57073 407-420]: the results for the normalised SPOT signal, Boehringer light units (BLU); mean over the file's lines of this peptide in assay [1] and in assay [2] were 71 and 1100, respectively.

TPLSLKRPPPYDAV [Q9P242 471-484]: the normalised SPOT signal, Boehringer light units (BLU); mean over the file's lines of this peptide in assay [1] was found to be 19.2; in assay [2], 67.5.

Regarding TPDLLPRPPRLLLL [Q9NRA0 137-150], the normalised SPOT signal, Boehringer light units (BLU); mean over the file's lines of this peptide in assay [1] was determined as 830; in assay [2] it was 94.4.

As for TQPVLKRPRHVHSH [Q9BZH3 389-402], the values for the normalised SPOT signal, Boehringer light units (BLU); mean over the file's lines of this peptide in assay [1] and in assay [2] were 46.6 and 60.5, respectively.

For the molecule TPAPPLRPPDSLSR [Q8WX45 160-174], the figures for the normalised SPOT signal, Boehringer light units (BLU); mean over the file's lines of this peptide in assay [1] and in assay [2] were 446 and 647, respectively.

For the molecule TRPKPLKPPSDLSM [P33121 45-59], the figures for the normalised SPOT signal, Boehringer light units (BLU); mean over the file's lines of this peptide in assay [1] and in assay [2] were 90.5 and 451, respectively.
